System: MS2 coat protein
Experiment: apparent KD of MS2 coat protein; designed switch direction (-1 OFF switch, 1 ON switch): -1; higher = weaker reporter binding
How it was run: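 Designed RNA switches with common flanks were made on Illumina chips by stalled E. coli RNA polymerase. Titration with SNAP-549-labelled MS2 coat protein doubled from 0.7 or 1.5 nM up to 3 µM. Apparent KD is each design's median over clusters after curve-fitting normalised fluorescence.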

[1] = input ligand: microRNA oligo, concentration not stated
[2] = Eterna round: R95, input ligand: FMN 200 uM
[3] = Eterna round: R95, input ligand: microRNA oligo, concentration not stated
[4] = Eterna round: R95, input ligand: none

With “AAUGAUUGAUGAGGAUAUUGUGGUGAAACACGACGAGAAGGCAUAUGUCACAUGAGGAUCACCCAUGUGAGCCUUGUGGAUAUA [Ex NG1 #66] (Eterna round: R96, puzzle: Exclusion NG 1)” the “apparent KD of MS2 coat protein” value (input ligand: FMN 200 uM) was 115 nM, the “apparent KD of MS2 coat protein” value [1] was 45.9 nM and the “apparent KD of MS2 coat protein” value (input ligand: none) was 57.9 nM.
“AAUGGAUGUGUUAGGAUAUCCGGAGGGAAACCUCCGGAGAAGGAACAUGAGGAUCACCCAUGUAUGUAAAAUAC [AK-MS2ROC-r4-Bmoexclusion4-3] (Eterna round: R97, puzzle: Brourd's mod of Exclusion 4)” was tested, and the “apparent KD of MS2 coat protein” value (input ligand: FMN 200 uM) was 449 nM and the “apparent KD of MS2 coat protein” value (input ligand: none) was 111 nM.
With “AAUUAAACAUAGGAUAUCGAAUUUAUUAUUUAACGAGAAGGAUGAACAUGAGGAUCACCCAUGUGGUAUCAUGG [Mat - Exclusion 6 - JL Mod - D23] (puzzle: Exclusion 6)” the “apparent KD of MS2 coat protein” value [2] was 333 nM, the “apparent KD of MS2 coat protein” value [3] was 197 nM and the “apparent KD of MS2 coat protein” value [4] was 213 nM.
In the case of “AAUUAACAAGCAAGAUCCUACAUGAGGAUCACCCAUGUGCUCGUCUUAUAAAGUACUAUCACGAAAGUGAUAGUACA [Mat - Sensor v3 - turn-off var 1 - Eli Mod - D57] (puzzle: Sensor v3, turn-off variant 1)”, the “apparent KD of MS2 coat protein” value [2] is reported as 217 nM, the “apparent KD of MS2 coat protein” value [3] is reported as 357 nM and the “apparent KD of MS2 coat protein” value [4] is reported as 197 nM.
“AAUUAACUAGGAUAUACUUGAGGAUCACCCAAGUGGGCUCCACCUGCUUGGCUCCCAGGUAGAAGGAGUAUACA [Tioner] (Eterna round: R97, puzzle: Exclusion 3)” was tested, and the “apparent KD of MS2 coat protein” value (input ligand: FMN 200 uM) was 213 nM and the “apparent KD of MS2 coat protein” value (input ligand: none) was 538 nM.
For “AAUUAGCAAGCGAGAUCCCACAUGAGGAUCACCCAUGUGCUCGUCUUAUAUAAGGUACUGUACGAGAGUACGGUACC [Mat - Sensor, turn-off var - Eli Mod - D30] (Eterna round: R97, puzzle: Sensor, turn-off variant 1)”, the “apparent KD of MS2 coat protein” value (input ligand: FMN 200 uM) was 12.1 nM and the “apparent KD of MS2 coat protein” value (input ligand: none) was 10.6 nM.
In the case of “AAUUAUUUUUGAGGAUAUCGUGGUGAAACACCACGAGAAGGCAAGAUACACAUGAGGAUCACCCAUGUGAGCCUGAUGCUUAUG [Ex NG1 #52] (Eterna round: R96, puzzle: Exclusion NG 1)”, the “apparent KD of MS2 coat protein” value [1] is reported as 13.2 nM.
With “AAUUCACAUGAGGAUCACCCAUGUCAGGAUAUGGUUUUAUUUUUUUCUUUUCUUGAUUCCAGAAGGGACAGCUA (puzzle: Exclusion 1)” the “apparent KD of MS2 coat protein” value [3] was 70.8 nM.
In the case of “ACAAAGCUUUUUGCUCGUCACAUGAGGAUCACCCAUGUGAUAUAAUGAAAAUUAUAUGACAUCCCACUAGGACAUGU [I did it?] (Eterna round: R97, puzzle: Sensor, turn-off variant 1)”, the “apparent KD of MS2 coat protein” value (input ligand: FMN 200 uM) is reported as 18.5 nM and the “apparent KD of MS2 coat protein” value (input ligand: none) is reported as 20.9 nM.
With “ACAAGAAUUUUGCUCGUAAAGUAGAAACGCGAGAGCGGGACAUGAGGAUCACCCAUGUAAAGGCAGUUGGUGGAGAU [JR_SV3TOV2_Sub028] (puzzle: Sensor v3, turn-off variant 2)” the “apparent KD of MS2 coat protein” value [2] was 39.7 nM, the “apparent KD of MS2 coat protein” value [3] was 53.2 nM and the “apparent KD of MS2 coat protein” value [4] was 48.7 nM.
With “ACAAGCAGAGAGUAAAUGGACAUGAGGAUCACCCAUGUGAGUCCAAGGAGAUAAGAUAUAUUAUUGGCUCGUCUUAU [AK-miRNA-r3-20] (Eterna round: R97, puzzle: Sensor, turn-off variant 1)” the “apparent KD of MS2 coat protein” value (input ligand: FMN 200 uM) was 75.2 nM and the “apparent KD of MS2 coat protein” value (input ligand: none) was 104 nM.
For “ACAAGCAGAGAGUAAAUGGACAUGAGGAUCACCCAUGUGAGUCCAAGGAGAUAAGAUAUUAAAAAGGCUCGUCUUAU [AK-miRNA-r3-19] (Eterna round: R97, puzzle: Sensor, turn-off variant 1)”, the “apparent KD of MS2 coat protein” value (input ligand: FMN 200 uM) was 112 nM and the “apparent KD of MS2 coat protein” value (input ligand: none) was 98.3 nM.
“ACAAGCUCUGUGGGUGGUGACAUGAGGAUCACCCAUGUUUUGCUCGUCUUGUCCCGGGCCCGGCGCCCGGGCCCGGG [-40.4, -69.3, A 12%] (Eterna round: R97, puzzle: Sensor, turn-off variant 1)” was tested, and the “apparent KD of MS2 coat protein” value (input ligand: FMN 200 uM) was 625 nM and the “apparent KD of MS2 coat protein” value (input ligand: none) was 1340 nM.
“ACAAGCUCUGUGGGUGGUGACAUGAGGAUCACCCAUGUUUUGCUCGUCUUGUCGGCCGGCCGGCGCCCGGCCGGCCG [-39.6, -68.5, A 12%] (Eterna round: R97, puzzle: Sensor, turn-off variant 1)” was tested, and the “apparent KD of MS2 coat protein” value (input ligand: FMN 200 uM) was 498 nM and the “apparent KD of MS2 coat protein” value (input ligand: none) was 727 nM.
With “ACAAGCUUAAAGGUGAAUAACAUGAGGAUCACCCAUGUUCGUCUUAUAAAAAUAAAAAUAAAAAAUAAAAAAUAAAA [Sensor V2: 62] (Eterna round: R96, puzzle: Sensor v2, turn-off variant)” the “apparent KD of MS2 coat protein” value (input ligand: FMN 200 uM) was 25.6 nM, the “apparent KD of MS2 coat protein” value [1] was 87.2 nM and the “apparent KD of MS2 coat protein” value (input ligand: none) was 27.9 nM.
For “ACAAGCUUAAUCUGUAUGAACAUGAGGAUCACCCAUGUAUAAGGGAAUUCUUUUGGGUUUUUUAUUGCUCGUCUUAU [JR_STOV1_Sub021] (Eterna round: R97, puzzle: Sensor, turn-off variant 1)”, the “apparent KD of MS2 coat protein” value (input ligand: FMN 200 uM) was 317 nM and the “apparent KD of MS2 coat protein” value (input ligand: none) was 311 nM.
For “ACAAGCUUUUUGCUCGAAGAGUAGAAACGUGAGAGCGAAACAUGAGGAUCACCCAUGUAAAGGCAGUAGGUGAAGAU [JR_SV3TOV2_Sub024] (puzzle: Sensor v3, turn-off variant 2)”, the “apparent KD of MS2 coat protein” value [2] was 39.8 nM, the “apparent KD of MS2 coat protein” value [3] was 57.4 nM and the “apparent KD of MS2 coat protein” value [4] was 57.2 nM.
With “ACAAGCUUUUUGCUCGGGUACAUGAGGAUCACCCAUGUUUGGGUUUAUUGAGGUUGUGUGGGCGUGCGCUGCAGGUU [JR_SV3TOV1_Sub075] (puzzle: Sensor v3, turn-off variant 1)” the “apparent KD of MS2 coat protein” value [2] was 87.7 nM, the “apparent KD of MS2 coat protein” value [3] was 243 nM and the “apparent KD of MS2 coat protein” value [4] was 118 nM.
In the case of “ACAAGCUUUUUGUUCGUCUUAUAAUAUUCAAUAAAGAUAACAUGAGGAUCACCCAUGUAACAAAGACGGACUCAUGU [Sesor Array 16 - Jieux - Sensor v3, turn-off variant 2] (puzzle: Sensor v3, turn-off variant 2)”, the “apparent KD of MS2 coat protein” value [2] is reported as 16.5 nM, the “apparent KD of MS2 coat protein” value [3] is reported as 267 nM and the “apparent KD of MS2 coat protein” value [4] is reported as 12.4 nM.
In the case of “ACAAGGAUGAAGGAUAUGGAAGAGUGGGAGCCUCCAGAAGGUCGUACAUGAGGAUCACCCAUGUAUUGGGCUUA [Eternabot (L2) Solution 38] (Eterna round: R97, puzzle: Exclusion 6)”, the “apparent KD of MS2 coat protein” value (input ligand: FMN 200 uM) is reported as 22.5 nM and the “apparent KD of MS2 coat protein” value (input ligand: none) is reported as 21 nM.
In the case of “ACACACAGAGGAUAUCUUCCGCAUGACAUGAGGAUCACCCAUGUGUGCAUGCCCAAAAGUAGAGAAGGCUGUGUGU [eternacac ex5r4 #3] (Eterna round: R97, puzzle: Exclusion 5)”, the “apparent KD of MS2 coat protein” value (input ligand: FMN 200 uM) is reported as 27.1 nM and the “apparent KD of MS2 coat protein” value (input ligand: none) is reported as 35.6 nM.
With “ACAGCGUGAGGAUAUACAUGAGGAUCACCCAUGUAUGGCAGGUUAUCCUGUCGUAAGUGUAGAAGGCACGCUGU [Exclusion 3 - Oddities v.4 ( A small slide from ms2 to fmn)] (puzzle: Exclusion 3)” the “apparent KD of MS2 coat protein” value [3] was 18.8 nM.
For “ACAUCACAUGAGGAUCACCCAUGUCAGGAUAUUCAGCGUAGCAUGCUACCUAACAUCAGAAGAAGGGACACGUA [First Design] (Eterna round: R97, puzzle: Exclusion 1)”, the “apparent KD of MS2 coat protein” value (input ligand: FMN 200 uM) was 64.5 nM and the “apparent KD of MS2 coat protein” value (input ligand: none) was 68.2 nM.
For “ACAUGAGGAGAAGGAUAUCUUUAGAGGGUUACCAGAGAAGGUCUAACAUGAGGAUCACCCAUGUCAUGAGGGUCUUGAAUGUUG [10th something] (Eterna round: R96, puzzle: Exclusion NG 1)”, the “apparent KD of MS2 coat protein” value (input ligand: FMN 200 uM) was 145 nM, the “apparent KD of MS2 coat protein” value [1] was 151 nM and the “apparent KD of MS2 coat protein” value (input ligand: none) was 140 nM.
In the case of “ACAUGAGGAUCACCCAUGUAAACAUAAUGGCUCAUGUAGAGUCAGGAUAUGCGUGGCGAACAAACGCAGAAGGGACAAGACUGG [Deportation 26 - Jieux - Exclusion NG 3] (Eterna round: R96, puzzle: Exclusion NG 3)”, the “apparent KD of MS2 coat protein” value (input ligand: FMN 200 uM) is reported as 28.1 nM, the “apparent KD of MS2 coat protein” value [1] is reported as 30.8 nM and the “apparent KD of MS2 coat protein” value (input ligand: none) is reported as 29.6 nM.
“ACAUGAGGAUCACCCAUGUAAACAUGAUGGCUGAUGUAGAGCUAGGAUAUGAGUGAAUAUCUAUCUCAGAAGGAGCUUGACUGG [Deportation 46 - Jieux - Exclusion NG 3] (Eterna round: R96, puzzle: Exclusion NG 3)” was tested, and the “apparent KD of MS2 coat protein” value (input ligand: FMN 200 uM) was 20 nM, the “apparent KD of MS2 coat protein” value [1] was 15.8 nM and the “apparent KD of MS2 coat protein” value (input ligand: none) was 24.9 nM.
“ACAUGAGGAUCACCCAUGUAAACGUAAUGGCUCAUGUAGAGUCAGGAUAUGCGUGGCGAACUCGCGCAGAAGGGACAAGACUGG [Deportation 22 - Jieux - Exclusion NG 3] (Eterna round: R96, puzzle: Exclusion NG 3)” was tested, and the “apparent KD of MS2 coat protein” value (input ligand: FMN 200 uM) was 30.4 nM, the “apparent KD of MS2 coat protein” value [1] was 23.7 nM and the “apparent KD of MS2 coat protein” value (input ligand: none) was 28.6 nM.
For “ACAUGAGGAUCACCCAUGUAAUGAAGGGUACUAUAUUAAACGUAGGAUAUCGAUGUAAGUUUGUUCGAGAAGGACGAUUGCCUU [JR_ExcNG3_Sub053] (Eterna round: R96, puzzle: Exclusion NG 3)”, the “apparent KD of MS2 coat protein” value (input ligand: FMN 200 uM) was 28.1 nM, the “apparent KD of MS2 coat protein” value [1] was 38.6 nM and the “apparent KD of MS2 coat protein” value (input ligand: none) was 75.8 nM.
“ACAUGAGGAUCACCCAUGUCCGUCUGGUCUGUCUCGGCUGUCGAGGAUAUAGCUCGGUAUCCGCGCUAGAAGGCGGGAGCCGGU [Aenatbe mod 92] (Eterna round: R96, puzzle: Exclusion NG 3)” was tested, and the “apparent KD of MS2 coat protein” value (input ligand: FMN 200 uM) was 30.9 nM, the “apparent KD of MS2 coat protein” value [1] was 31.8 nM and the “apparent KD of MS2 coat protein” value (input ligand: none) was 35 nM.
With “ACAUGAGGAUCACCCAUGUCUGGCUGGUCCGUCUCGGCUGUCGAGGAUAUAGCUCGGUGUCCGCGCUAGAAGGCGGGAGCUGGU [Aenatbe mod 82] (Eterna round: R96, puzzle: Exclusion NG 3)” the “apparent KD of MS2 coat protein” value (input ligand: FMN 200 uM) was 631 nM, the “apparent KD of MS2 coat protein” value [1] was 78 nM and the “apparent KD of MS2 coat protein” value (input ligand: none) was 143 nM.
In the case of “ACAUGAGGAUCACCCAUGUGAAAAGAAUGGCUGACACAGAGAUAGGAUAUAGGUGCAUAUCUAACCUAGAAGGGUCAUGACUGG [Deportation 77 - Jieux - Exclusion NG 3] (Eterna round: R96, puzzle: Exclusion NG 3)”, the “apparent KD of MS2 coat protein” value (input ligand: FMN 200 uM) is reported as 23.5 nM, the “apparent KD of MS2 coat protein” value [1] is reported as 22.3 nM and the “apparent KD of MS2 coat protein” value (input ligand: none) is reported as 33 nM.

Reference: the supplement of paper PMC9170038
